Patent US20050287542, “Protein binding miniature proteins” (published 2005)

Experiments:
G56 (GCN4 bZIP element) [1] = biological target: T1, G56 (GCN4 bZIP element) (UniProt P03069 P03069:226-281); experiment: EMSA; ddG -2.6 kcal/mol; conditions: chain copies: 2 inferred; label: 32P
G56 (GCN4 bZIP element) [2] = biological target: T1, G56 (GCN4 bZIP element); experiment: EMSA; conditions: chain copies: 2 inferred; label: 32P

T1 sequence (P03069 226-281, one chain of several): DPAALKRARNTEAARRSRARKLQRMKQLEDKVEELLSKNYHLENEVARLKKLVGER

B1: CEBP24 (C/EBP24) (dsDNA)
DNA 1: AGTGGAGATTGCGCAATCTCGTGC
DNA 2: GCACGAGATTGCGCAATCTCCACT
- binding signal (G56 (GCN4 bZIP element) [1]): 118 fold specificity ratio for CRE24 over CEBP24

B2: CRE24 (dsDNA)
DNA 1: AGTGGAGATGACGTCATCTCGTGC
DNA 2: GCACGAGATGACGTCATCTCCACT
- binding signal (G56 (GCN4 bZIP element) [2]): 118 fold preference over CEBP24
